Test results reported in patent US20230084763A1 (published 2023).

T1: CD20 (UniProt P11836 1-297)
T1 chain: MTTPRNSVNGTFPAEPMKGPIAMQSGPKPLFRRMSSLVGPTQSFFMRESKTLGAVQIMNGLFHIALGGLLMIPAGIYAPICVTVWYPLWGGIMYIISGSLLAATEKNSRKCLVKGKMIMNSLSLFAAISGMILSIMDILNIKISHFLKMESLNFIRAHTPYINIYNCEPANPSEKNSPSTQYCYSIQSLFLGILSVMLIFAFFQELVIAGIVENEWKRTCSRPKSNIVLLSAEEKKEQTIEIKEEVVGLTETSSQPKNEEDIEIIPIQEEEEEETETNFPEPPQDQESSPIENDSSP


Columns and labels:
CD20 [1] = biological target: T1, CD20; test: bio-layer interferometry; scFv, Run 1
CD20 [2] = biological target: T1, CD20; test: bio-layer interferometry; scFv, Run 3
CD20 [3] = biological target: T1, CD20; test: bio-layer interferometry; scFv, Run 2
CD20 [4] = biological target: T1, CD20; test: bio-layer interferometry; scFv, Avg of 3 runs

Binder | Kd (CD20 [1]) [nM] | Kd (CD20 [2]) [nM] | Kd (CD20 [3]) [nM] | Kd (CD20 [4]) [nM]
Leu16 (antibody, V domains shown) VH: EVQLQQSGAELVKPGASVKMSCKASGYTFTSYNMHWVKQTPGQGLEWIGAIYPGNGDTSYNQKFKGKATLTADKSSSTAYMQLSSLTSEDSADYYCARSNYYGSSYWFFDVWGAGTTVTVSS VL: DIVLTQSPAILSASPGEKVTMTCRASSSVNYMDWYQKKPGSSPKPWIYATSNLASGVPARFSGSGSGTSYSLTISRVEAEDAATYYCQQWSFNPPTFGGGTKLEIK | 157 | 131 | 127 | 138
Hybrid (antibody, V domains shown) VH: QVQLQQPGAELVKPGASVKMSCKASGYTFTSYNMHWVKQTPGRGLEWIGAIYPGNGDTSYNQKFKGKATLTADKSSSTAYMQLSSLTSEDSAVYYCARSNYYGSSYWFFDVWGAGTTVTVSS VL: QIVLSQSPAILSASPGEKVTMTCRASSSVNYMDWFQQKPGSSPKPWIYATSNLASGVPVRFSGSGSGTSYSLTISRVEAEDAATYYCQQWSFNPPTFGGGTKLEIK | 75.5 | 82.2 | 95.5 | 84.4
Rituximab (antibody, V domains shown) VH: QVQLQQPGAELVKPGASVKMSCKASGYTFTSYNMHWVKQTPGRGLEWIGAIYPGNGDTSYNQKFKGKATLTADKSSSTAYMQLSSLTSEDSAVYYCARSTYYGGDWYFNVWGAGTTVTVSS VL: QIVLSQSPAILSASPGEKVTMTCRASSSVSYIHWFQQKPGSSPKPWIYATSNLASGVPVRFSGSGSGTSYSLTISRVEAEDAATYYCQQWTSNPPTFGGGTKLEIK |  | 122 |  | 119
